Source: article PMC9555226, “Microreactor equipped with naturally acid-resistant histidine ammonia lyase from an extremophile” (Materials advances, 2022)

Substrate: N[C@@H](Cc1c[nH]cn1)C(=O)O
Assay: purified protein
Assay type: biochemical, Thermoplasma acidophilum
Conditions: 37 °C, pH 7.4, buffer A, free enzyme

B1: TaHAL (Thermoplasma acidophilum histidine ammonia lyase) (Thermoplasma acidophilum DSM 1728) (protein)
chain: MIEIDGRSLRVEDVYAVAVEYDRVSISDDTLKAVEEKHEAFLKLINSGKTVYGVNTGFGSLLNVHIERDQEIELQKNLIRSHSSGVGDYLENRYVRAIMAVRLNSLAAGYSAVSADLLNMMVEMLNRDVIPAVPKYGSVGASGDLAPLAHIGLAMMGEGKAFFEGRLMDSARALEKAGLKPYQFKEKEGVALINGTSFMSGILSIAVMDAHDILENAIRSALLSFEALGGTSKAFTPWILGARPHLGQVAIGNRFREYLTGSDIVKRADSVKVQDAYTLRCIPQVYGSVADVIDYVENVLSVEINSATDNPLFNGEEVVSGGNFHGEPVALAADFLAIALTDLGNMVERRIARLVDTNLSGLPPFLTPDSGLNSGYMIPQYTAAALCNRNKVLAYPSSADTIPTSANQEDHVSMGATGSLKLLEIIDNVRYIIAIEYLLGSQALEFTDKGMSPSTRKIYEKIREKVEKLDHDRPPSFDIETIRKMMDKKEFISALP
notes: E. coli BL21(DE3), codon-optimized gene, pET28a; N-terminal His-SUMO tag cleaved with ULP1; ~55 kDa; homotetramer with MIO
With B1 the Km was 45 ± 20 µM, the kcat was 1.01 ± 0.08 s⁻¹ and the kcat/Km was 22400 ± 4000 M⁻¹ s⁻¹.
